This note sets out measurements from paper PMC10903983 (2024).

For orientation: Kd means the constant that tells how readily two partners part at equilibrium. Higher therefore signals weaker binding.

The assay addresses KPNA2 (Homo sapiens, UniProt P52292). The assay can be described thus: MST.

In turn, KLVFFVKRKKKP [NLS-FF-T nucleopeptide] had a Kd of about 1.16 µM.
To KLVFF [FF-T nucleopeptide] belongs about 31.1 µM.
